For this series, the system named is apRAD51C-CTD-1 R258H (Alvinella pompejana). As to the kind of experiment: fluorescence polarization. The conditions noted are these: FP: 20 mM HEPES pH 8, 80 mM NaCl, 2.5 mM ATP, 2.5 mM MgCl2, 1 mM DTT, 0.1 mg/mL BSA, 10 nM DNA, 37 C 20 min, EMSA: 20 mM Tris pH 8.0, 150 mM KCl, 4 C 15 min. For orientation: In fluorescence polarisation assays a small probe gives low polarisation when free and higher when bound to something large.

The Kd is the concentration at which binding is half-saturated.

Take TTTTTTTTTTTTTTTTTTTT [poly-20dT]: the Kd came to 36.5 µM.

The values above are taken from PMC10366140.
